This is an account of results in paper PMC4609183 (The EMBO Journal, 2015).

The chains are these.
B1: parkin Ubl domain (domain or fragment, human, UniProt O60260 1-76, looked up)
chain: MIVFVRFNSSHGFPVEVDSDTSIFQLKEVVAKRQGVPADQLRVIFAGKELRNDWTVQNCDLDQQSIVHIVQRPWRK
B2: R0RBR parkin (residues 141–465, lacking Ubl domain and linker) (domain or fragment, human, UniProt O60260 141-465, looked up)
chain: SIYNSFYVYCKGPCQRVQPGKLRVQCSTCRQATLTLTQGPSCWDDVLIPNRMSGECQSPHCPGTSAEFFFKCGAHPTSDKETSVALHLIATNSRNITCITCTDVRSPVLVFQCNSRHVICLDCFHLYCVTRLNDRQFVHDPQLGYSLPCVAGCPNSLIKELHHFRILGEEQYNRYQQYGAEECVLQMGGVLCPRPGCGAGLLPEPDQRKVTCEGGNGLGCGFAFCRECKEAYHEGECSAVFEASGTTTQAYRVDERAAEQARWEAASKETIKKTTKPCPRCHVPVEKNGGCMHMKCPQPQCRLEWCWNCGCEWNRVCMGDHWFDV

Experiment in all cases: ITC; 50 μM R0RBR, full-length parkin or phosphoparkin titrated with Ub, Ubl or their variants; 25°C; 50 mM HEPES, 50 mM NaCl, 250 μM TCEP pH 7.5 or 50 mM HEPES, 150 mM NaCl, 0.5 mM TCEP pH 8.0; single-site model
Common to all, as to conditions: both partners purified
In general terms: ITC needs no label: the signal is the heat of the interaction.

In assay [1] the target is B2.
The target in assay [2] is ubiquitin (UniProt P0CG47 1-76).
Assay [3] addresses phosphoubiquitin (UniProt P0CG47 1-76, phosphoserine at 65).

Regarding B1, in assay [1], the Kd came out at 3.8 ± 1.3 µM, the dH is -10.5 ± 0.717 kcal/mol and the “stoichiometry N” value turned out to be 0.98.

For the molecule B2, the Kd worked out at 67 ± 1 µM in assay [2] and 0.016 ± 0.002 µM in assay [3].

In general, Kd refers to the equilibrium constant for the complex coming apart. A high value points to a looser complex. In general, stoichiometry N refers to the number of molecules, sites or subunits per partner or assembly.
